B1: Phorbol-12-myristate-13-acetate-induced protein 1 (Homo sapiens), Q13794 (parent)
chain: MPGKKARKNAQPSPARAPAELEVECATQLRRFGDKLNFRQKLLNLISKLFCSGT
B2: Bcl-2 homologous antagonist/killer (Homo sapiens), Q16611 (parent)
chain: MASGQGPGPPRQECGEPALPSASEEQVAQDTEEVFRSYVFYRHQQEQEAEGVAAPADPEMVTLPLQPSSTMGQVGRQLAIIGDDINRRYDSEFQTMLQHLQPTAENAYEYFTKIATSLFESGINWGRVVALLGFGYRLALHVYQHGLTGFLGQVTRFVVDFMLHHCIARWIAQRGGWVAALNLGNGPILNVLVVLGVVLLGQFVVRRFFKS

Variants of: B1
Conditions: with mcl1_human MCL1, Q07820
Target sequence in this assay (Q07820 whole entry): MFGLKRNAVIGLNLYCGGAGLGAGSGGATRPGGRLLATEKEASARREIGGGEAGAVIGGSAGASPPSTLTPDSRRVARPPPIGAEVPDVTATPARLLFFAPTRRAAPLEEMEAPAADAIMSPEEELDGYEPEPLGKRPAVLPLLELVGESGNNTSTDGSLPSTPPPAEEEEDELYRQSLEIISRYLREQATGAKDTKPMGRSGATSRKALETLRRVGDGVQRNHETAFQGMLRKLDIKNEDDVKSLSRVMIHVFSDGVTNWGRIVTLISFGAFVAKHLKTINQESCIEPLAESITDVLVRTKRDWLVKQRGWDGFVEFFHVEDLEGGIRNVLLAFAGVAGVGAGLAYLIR

| effect of a mutation on the interaction | Variant |
| --- | --- |
| decreasing interaction | MPGKKARKNAQPSPARAPAELEVECATQERRFGDKLNFRQKLLNLISKLFCSGT |
| decreasing interaction | MPGKKARKNAQPSPARAPAELEVECATQLRRFGDKENFRQKLLNLISKLFCSGT |
| decreasing interaction | MPGKKARKNAQPSPARAPAELEVECATQLRREGDKLNFRQKLLNLISKLFCSGT |

Variants of: B2
Conditions: with mcl1_mouse Mcl1, P97287
Chain of mcl1_mouse Mcl1, P97287 (P97287 whole entry): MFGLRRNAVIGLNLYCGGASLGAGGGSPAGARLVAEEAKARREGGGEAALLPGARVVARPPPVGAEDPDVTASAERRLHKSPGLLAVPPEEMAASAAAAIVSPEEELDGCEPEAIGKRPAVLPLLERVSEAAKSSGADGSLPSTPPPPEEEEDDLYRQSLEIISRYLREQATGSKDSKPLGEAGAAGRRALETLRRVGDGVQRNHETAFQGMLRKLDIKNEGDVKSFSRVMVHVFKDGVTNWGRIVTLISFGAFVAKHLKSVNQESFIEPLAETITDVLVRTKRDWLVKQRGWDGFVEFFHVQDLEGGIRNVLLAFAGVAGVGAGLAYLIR

| effect of a mutation on the interaction | Variant |
| --- | --- |
| decreasing interaction | MASGQGPGPPRQECGEPALPSASEEQVAQDTEEVFRSYVFYRHQQEQEAEGVAAPADPEMVTLPLQPSSTMGQVGRQAAIIGDDINRRYDSEFQTMLQHLQPTAENAYEYFTKIATSLFESGINWGRVVALLGFGYRLALHVYQHGLTGFLGQVTRFVVDFMLHHCIARWIAQRGGWVAALNLGNGPILNVLVVLGVVLLGQFVVRRFFKS [L78A] |

Variants of: B2
Conditions: with mcl1_human MCL1, Q07820
Target sequence in this assay (Q07820 whole entry): as the sequence (Q07820 whole entry) above

| effect of a mutation on the interaction | Variant |
| --- | --- |
| decreasing interaction | MASGQGPGPPRQECGEPALPSASEEQVAQDTEEVFRSYVFYRHQQEQEAEGVAAPADPEMVTLPLQPSSTMGQVGRQAAIIGDDINRRYDSEFQTMLQHLQPTAENAYEYFTKIATSLFESGINWGRVVALLGFGYRLALHVYQHGLTGFLGQVTRFVVDFMLHHCIARWIAQRGGWVAALNLGNGPILNVLVVLGVVLLGQFVVRRFFKS [L78A] |

Variants of: B2
Conditions: with bax_human BAX

| effect of a mutation on the interaction | Variant |
| --- | --- |
| decreasing interaction | MASGQGPGPPRQECGEPALPSASEEQVAQDTEEVFRSYVFYRHQQEQEAEGVAAPADPEMVTLPLQPSSTMGQVGRQAAIIGDDINRRYDSEFQTMLQHLQPTAENAYEYFTKIATSLFESGINWGRVVALLGFGYRLALHVYQHGLTGFLGQVTRFVVDFMLHHCIARWIAQRGGWVAALNLGNGPILNVLVVLGVVLLGQFVVRRFFKS [L78A] |

— IntAct's records for PubMed 15901672
